As a reminder, the IC50 is the concentration that inhibits the measured activity by half. Read a low IC50 as greater potency.

Assay [1] has as its target T1, formyl peptide receptor like 1 (FPRL1) (human, UniProt P25090 1-351).
T1 sequence (looked up): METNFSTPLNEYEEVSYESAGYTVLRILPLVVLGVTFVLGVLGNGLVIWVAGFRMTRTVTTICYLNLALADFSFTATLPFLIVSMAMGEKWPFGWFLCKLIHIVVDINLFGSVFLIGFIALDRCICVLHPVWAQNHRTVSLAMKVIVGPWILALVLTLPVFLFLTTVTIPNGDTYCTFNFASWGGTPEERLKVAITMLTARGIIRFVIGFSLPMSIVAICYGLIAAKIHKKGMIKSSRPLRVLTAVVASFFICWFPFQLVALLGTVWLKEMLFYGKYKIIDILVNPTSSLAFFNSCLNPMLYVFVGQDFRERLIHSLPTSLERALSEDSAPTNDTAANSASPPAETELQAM
As to the kind of experiment: cell-based or functional assay.

For assay [2], the target named is MIP-1α binding sites on human monocytes (human). The experiment in a line: displacement of 125I-MIP-1α from human monocytes, filter binding.
The target of assay [3] is T2, human chemokine receptor CCR1 (human, UniProt P32246 1-355).
T2 construct: whole, on cells; also called HEK293-CCR1 transfectants
T2 sequence (looked up): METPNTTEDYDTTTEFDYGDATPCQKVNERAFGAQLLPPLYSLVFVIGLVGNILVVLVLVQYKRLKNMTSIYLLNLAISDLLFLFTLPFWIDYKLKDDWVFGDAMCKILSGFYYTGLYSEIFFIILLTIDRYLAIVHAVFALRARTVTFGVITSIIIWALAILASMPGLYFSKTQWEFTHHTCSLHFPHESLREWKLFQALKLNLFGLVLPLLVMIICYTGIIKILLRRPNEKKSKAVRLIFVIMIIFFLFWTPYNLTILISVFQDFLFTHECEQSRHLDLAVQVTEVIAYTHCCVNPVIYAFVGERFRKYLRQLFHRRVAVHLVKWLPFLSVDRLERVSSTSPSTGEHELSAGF
As to the kind of experiment: displacement of 125I-MIP-1α from HEK293-CCR1 cells, filter binding, 3 h at 4°C. As for the experimental part: (§1) The binding characteristics of CCL23 variants was compared in human CCR1 expressing cells. […] Reactions mixtures were aspirated onto PEI-treated GF/B glass filters using a cell harvester (Packard). The filters were washed twice (25 mM HEPES, 500 mM NaCl, 1 mM CaCl₂, 5 mM MgCl₂, adjusted to pH 7.1). Scintillant (MicroScint-10; 35 μl) was added to dried filters and the filiters counted in a Packard Topcount scintillation counter. Data were analyzed and plotted using Prism software (GraphPad Software, San Diego, Calif.).

Assay [4] deals with T1, formyl peptide receptor like 1 (FPRL1). The experiment in a line: 125I-WKYMVm displacement on FPRL1-L1.2 transfectants and human monocytes. The text has this:
(§2) The IC50 for each interaction was derived from non-linear least squares curve fitting of the data by using Prism software (GraphPad Software).

Assay [5] shares this target. As to the kind of experiment: cell-based or functional assay. This is another data set of the same source.
Assay [6] has as its target T2, human chemokine receptor CCR1. As to the kind of experiment: displacement of 125I-MIP-1α from HEK293-CCR1 cells. As to the method: as §1
(In general: Loss of bound radioactivity is the signal in a displacement assay; it reports binding, not function.)

Assay [7] concerns the target MIP-1α binding sites on human monocytes (human). As to the kind of experiment: 125I-MIP-1α competition binding on human monocytes against HEK293-CCR1 cells.
Assay [8] deals with T1, formyl peptide receptor like 1 (FPRL1). As to the kind of experiment: displacement of 0.01 nM 125I-WKYMVm from human monocytes, 3 h at 4°C.
Excerpt: as §2

For assay [9] the target is unchanged. The experiment in a line: displacement of 0.01 nM 125I-WKYMVm from L1.2 FPRL1 cells, 3 h at 4°C.
Excerpt: as §2

Some results are limits rather than exact numbers.

With MLWRRKIGPQMTLSHAAY [SHAAYtide (SEQ ID NO: 6)], the “Induction of Calcium Flux in FPRL1 L1.2 Cells (IC 50)” value (shortened to “Induction of Calcium Flux”) in [1] turned out to be 38 nM.

B1: MIP-1α (ligand, human, UniProt P10147 27-92, looked up)
chain: ADTPTACCFSYTSRQIPQNFIADYFETSSQCSKPGVIFLTKRSRQVCADPSEEWVQKYVSDLELSA
notes: also called macrophage inflammatory protein
For the molecule B1, the IC50 in [2] came out at 0.27 nM; in [3], 0.54 nM.

B2: CKβ8(1-99) (ligand)
chain: RVTKDAETEFMMSKLPLENPVLLDRFHATSADCCISYTPRSIPCSLLESYFETNSECSKPGVIFLTKKGRRFCANPSDKQVQVCMRMLKLDTRIKTRKN
notes: Human recombinant chemokine bought from R&D Systems; also called CCL23 variant; CKβ (1-99)
With B2, the figures for the half-maximal inhibitory concentration (IC50) in [2] and in [3] were 10.3 nM and 64 nM, respectively. Besides, the binding result in [4] is recorded as “no binding”.
MLWRRKIGPQM [SHAAGtide truncated variant CCXP8 (SEQ ID NO: 8)]: the “Induction of Calcium Flux” value in assay [1] amounted to 45 nM.

B3: CKβ8-1(25-116) (ligand)
chain: MLWRRKIGPQMTLSHAAGFHATSADCCISYTPRSIPCSLLESYFETNSECSKPGVIFLTKKGRRFCANPSDKQVQVCMRMLKLDTRIKTRKN
notes: Human recombinant chemokine bought from R&D Systems; NH2-terminal truncated form of CKβ8-1; also called CCL23 variant
With B3, the “EC50 of calcium flux dose response in FPRL1-L1.2 transfectants” value in assay [5] lay within 10 to 20 nM. Also, in assay [1], the “Induction of Calcium Flux” value was 11 nM. The “fold IC50 change against CKβ8-1(1-116)” value in [6] worked out at 1 fold. For the same molecule, the IC50 was determined as 5.1 nM in assay [2], 31 nM in assay [8], 196 nM in [9] and 112 nM in assay [3]. This molecule also came in with a fold higher MIP-1α displacement activity on monocytes than on HEK293-CCR1 cells in assay [7] of over 10 fold.
On to MLWRRKIGPQMTLSHAAG [SHAAGtide (SEQ ID NO: 1)], for which, in assay [1], the “Induction of Calcium Flux” value came out at 150 nM.
For the molecule MLWRRKIGPQMT [SHAAGtide truncated variant CCXP5 (SEQ ID NO: 5)], the “Induction of Calcium Flux” value in assay [1] stood at 7.4 nM.
With MLWRRKIGPQMTLSH [SHAAGtide truncated variant CCXP3 (SEQ ID NO: 3)], the “Induction of Calcium Flux” value in [1] was 68 nM.
The same measure, in the same setting: in the case of RRKIGPQMTLSHAAG [SHAAGtide truncated variant CCXP2 (SEQ ID NO: 2)] it was over 50000 nM.

B4: CKβ8(25-99) (ligand)
chain: RFHATSADCCISYTPRSIPCSLLESYFETNSECSKPGVIFLTKKGRRFCANPSDKQVQVCMRMLKLDTRIKTRKN
notes: Human recombinant chemokine bought from R&D Systems; also called CCL23 variant; CKβ (25-99)
B4: the “fold IC50 change against CKβ8(1-99)” value in assay [6] worked out at 40 fold. Moreover, the concentration for half-maximal inhibition (IC50) is 0.25 nM in assay [2] and 1.34 nM in [3]. For the same molecule, the binding result in [4] was “no binding”.

B5: CKβ8-1(1-116) (ligand)
chain: RVTKDAETEFMMSKLPLENPVLLDMLWRRKIGPQMTLSHAAGFHATSADCCISYTPRSIPCSLLESYFETNSECSKPGVIFLTKKGRRFCANPSDKQVQVCMRMLKLDTRIKTRKN
notes: Human recombinant chemokine bought from R&D Systems; also called CCL23 variant
Consider B5, for which the half-maximal inhibitory concentration (IC50) in [2] was determined as 55 nM; in assay [3] it was 206 nM. Moreover, the binding result in [4] is on record as “no binding”.

Source of the values: patent US20060034863A1 (CHEMOCENTRYX, published 2006).
